Assay results reported in the supplement of paper PMC9233669.
Variants at the floor of the assay were thinned out.

Columns and labels:
[1] = test system: biotinyl-Phe-oxazolone; assay: self-aminoacylation, catalytic enhancement (BFO) (fold over background); higher = more active; k-Seq, kA / k0A0; sequences stand for … in GGGAAUGGAUCCACAUCUACGAAUUC…UUCACUGCAGACUUGACGAAGCUG
How it was run: (§1)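 Mutagenized RNA pools with a 21-nt variable region (0.43 μM) reacted with each biotinyl-aminoacyl-oxazolone at 2–1250 μM. Reactions ran in 50 μL HEPES/NaCl/KCl/MgCl2/CaCl2 buffer with 5% acetonitrile, pH 6.9–7.0, for 90 minutes at room temperature. Streptavidin-captured RNA was quantified by triplicate qPCR and Illumina sequencing, and per-sequence fraction reacted was fit to a pseudo-first-order model with 1000 bootstraps. Catalytic enhancement is median kA divided by the uncatalyzed rate, the low-activity peak of a bimodal Gaussian fit.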

[2] = test system: biotinyl-Ile-oxazolone; assay: self-aminoacylation, catalytic enhancement (BIO) (fold over background); higher = more active; k-Seq, kA / k0A0; sequences stand for … in GGGAAUGGAUCCACAUCUACGAAUUC…UUCACUGCAGACUUGACGAAGCUG
How it was run: as §1

[3] = test system: biotinyl-Met-oxazolone; assay: self-aminoacylation, catalytic enhancement (BMO) (fold over background); higher = more active; k-Seq, kA / k0A0; sequences stand for … in GGGAAUGGAUCCACAUCUACGAAUUC…UUCACUGCAGACUUGACGAAGCUG
How it was run: as §1

[4] = test system: biotinyl-Val-oxazolone; assay: self-aminoacylation, catalytic enhancement (BVO) (fold over background); higher = more active; k-Seq, kA / k0A0; sequences stand for … in GGGAAUGGAUCCACAUCUACGAAUUC…UUCACUGCAGACUUGACGAAGCUG
How it was run: as §1

[5] = test system: biotinyl-Leu-oxazolone; assay: self-aminoacylation, catalytic enhancement (BLO) (fold over background); higher = more active; k-Seq, kA / k0A0; sequences stand for … in GGGAAUGGAUCCACAUCUACGAAUUC…UUCACUGCAGACUUGACGAAGCUG
How it was run: as §1

[6] = test system: biotinyl-Trp-oxazolone; assay: self-aminoacylation, catalytic enhancement (BWO) (fold over background); higher = more active; k-Seq, kA / k0A0; sequences stand for … in GGGAAUGGAUCCACAUCUACGAAUUC…UUCACUGCAGACUUGACGAAGCUG
How it was run: as §1

Sequence	self-aminoacylation [1]	self-aminoacylation [2]	self-aminoacylation [3]	self-aminoacylation [4]	self-aminoacylation [5]	self-aminoacylation [6]
AAGCCUGCUAAUAGUCGCAAG [Fam3.1 aminoacylation ribozyme variant]	37.3	1.86	1.61	1.77	1.64	11.1
AAGCUUGCCAAUAGUCGCAAG [Fam3.1 aminoacylation ribozyme variant]	3.44	2.31	2.48	2.42	2.23	3.62
AAGCUUGCUAAUAGUCACAAG [Fam3.1 aminoacylation ribozyme variant]	4.35	1.64	1.5	1.35	1.65	1.28
AAGGUUCCUAAUAGUCGCAAG [Fam3.1 aminoacylation ribozyme variant]	1.62	1.61	1.64	1.39	1.5	1.43
AAGGUUGCAAAUAGUCGCAAG [Fam3.1 aminoacylation ribozyme variant]	1.44	1.41	1.02	1.08	1.2	1.66
AAGGUUGCUAAUAAUCGCAAG [Fam3.1 aminoacylation ribozyme variant]	1.47	1.41	1.11	1.02	1.19	1.59
AAGGUUGCUAAUAGUCGAAAG [Fam3.1 aminoacylation ribozyme variant]	6.22	1.51	1.36	1.44	0.938	2.33
AAGGUUGCUAAUAGUCGCAAA [Fam3.1 aminoacylation ribozyme variant]	1.51	1.86	1.28	1.42	1.63	1.4
AAGGUUGCUAAUAGUCGCAAU [Fam3.1 aminoacylation ribozyme variant]	3.18	1.99	1.81	1.46	1.68	1.61
AAGGUUGCUAAUAGUGGCAAG [Fam3.1 aminoacylation ribozyme variant]	0.712	0.698	0.863	0.79	0.977	0.638
AAGGUUGCUAAUCGUCGCAAG [Fam3.1 aminoacylation ribozyme variant]	3.36	1.27	1.07	1.2	1.09	2.14
AAGGUUGCUCAUAGUCGCAAG [Fam3.1 aminoacylation ribozyme variant]	4.12	1.46	1.57	1.25	1.63	1.5
AAGUACGCUAAUAGUCGCAAG [Fam3.1 aminoacylation ribozyme variant]	6.76	1.94	1.59	1.8	2.38	3.1
AAGUAUGCUAAUAGGCGCAAG [Fam3.1 aminoacylation ribozyme variant]	0.856	0.992	0.748	1.18	1.08	1.58
AAGUAUGCUAAUAGUCCCAAG [Fam3.1 aminoacylation ribozyme variant]	3.66	1.14	1.18	1.16	1.02	1.54
AAGUAUGCUAAUAGUCGCAAA [Fam3.1 aminoacylation ribozyme variant]	3.99	1.82	1.67	1.96	1.26	1.7
AAGUAUGCUAAUAGUCGCAAC [Fam3.1 aminoacylation ribozyme variant]	2.19	1.22	1.2	0.942	1.28	1.23
AAGUAUGCUAGUAGUCGCAAG [Fam3.1 aminoacylation ribozyme variant]	2.22	1.26	1.22	1.35	0.756	1.12
AAGUCAGCUAAUAGUCGCAAG [Fam3.1 aminoacylation ribozyme variant]	5.28	1.94	1.83	2	2.22	3.06
AAGUCUGCUAAUAGCCGCAAG [Fam3.1 aminoacylation ribozyme variant]	8.57	1.11	1.13	1.02	0.989	3.25
AAGUCUGCUAAUAGUCGAAAG [Fam3.1 aminoacylation ribozyme variant]	16.8	1.1	1.84	1.04	1.52	6.05
AAGUCUGCUAAUAGUCGCAAC [Fam3.1 aminoacylation ribozyme variant]	1.39	1.03	1.04	1.06	1.39	0.655

Sequence	self-aminoacylation [1]	self-aminoacylation [2]	self-aminoacylation [3]	self-aminoacylation [4]	self-aminoacylation [5]	self-aminoacylation [6]
AAGUCUGCUAAUAGUCGCCAG [Fam3.1 aminoacylation ribozyme variant]	1.8	1.1	1.34	1.32	1.04	3.43
AAGUCUGCUAAUCGUCGCAAG [Fam3.1 aminoacylation ribozyme variant]	4.49	0.996	1.36	1.01	1.15	1.94
AAGUGUACUAAUAGUCGCAAG [Fam3.1 aminoacylation ribozyme variant]	1.74	1.4	1.17	1.51	1.2	1.2
AAGUGUCCUAAUAGUCGCAAG [Fam3.1 aminoacylation ribozyme variant]	0.985	1.18	0.945	0.995	0.952	0.664
AAGUGUGCGAAUAGUCGCAAG [Fam3.1 aminoacylation ribozyme variant]	2.28	1.72	1.79	1.82	1.76	1.38
AAGUGUGCUAAGAGUCGCAAG [Fam3.1 aminoacylation ribozyme variant]	5.24	1.11	1.15	0.87	1.13	2.15
AAGUGUGCUAAUAUUCGCAAG [Fam3.1 aminoacylation ribozyme variant]	1.63	1.92	1.58	1.53	1.51	2.22
AAGUUAGCUAACAGUCGCAAG [Fam3.1 aminoacylation ribozyme variant]	2.2	1.83	2.31	1.68	1.66	1.56
AAGUUAGCUAAUAGCCGCAAG [Fam3.1 aminoacylation ribozyme variant]	1.96	1.88	0.903	1.6	1.44	2.02
AAGUUAGCUAAUAGUCGCAUG [Fam3.1 aminoacylation ribozyme variant]	3	1.83	1.07	1.34	1.97	1.64
AAGUUAGCUAAUAGUCGGAAG [Fam3.1 aminoacylation ribozyme variant]	3.13	1.07	1.12	1.32	1.28	1.94
AAGUUAGCUUAUAGUCGCAAG [Fam3.1 aminoacylation ribozyme variant]	2.88	1.8	1.43	1.56	1.48	1.9
AAGUUAUCUAAUAGUCGCAAG [Fam3.1 aminoacylation ribozyme variant]	2.66	1.51	1.32	1.18	1.53	1.36
AAGUUCGCUAAUACUCGCAAG [Fam3.1 aminoacylation ribozyme variant]	0.849	1.53	1.47	1.12	1.2	0.7
AAGUUCGCUAAUAGCCGCAAG [Fam3.1 aminoacylation ribozyme variant]	1.97	1.35	1.82	1.12	1.38	1.75
AAGUUCGCUAAUAGUCGCUAG [Fam3.1 aminoacylation ribozyme variant]	1.34	1.48	1.53	1.4	1.47	1.45
AAGUUCGCUAAUCGUCGCAAG [Fam3.1 aminoacylation ribozyme variant]	6.17	1.6	1.25	1.48	1.05	2.55
AAGUUCGCUAAUUGUCGCAAG [Fam3.1 aminoacylation ribozyme variant]	3.26	1.68	1.3	1.7	2.06	1.51
AAGUUGGCUAAUAGCCGCAAG [Fam3.1 aminoacylation ribozyme variant]	2.16	1.89	2.22	1.91	1.95	2.85
AAGUUGGCUAAUAGUCGCAGG [Fam3.1 aminoacylation ribozyme variant]	3.81	1.59	1.6	1.34	1.97	1.23
AAGUUGGCUCAUAGUCGCAAG [Fam3.1 aminoacylation ribozyme variant]	2.43	1.8	1.71	1.88	1.99	2.44
